From patent publication US20120231000A1

Molecular target: Avastin™ (Bevacizumab)
Assay: competition ELISA, inhibition of Avastin binding to coated humVEGF1-165

B1: oxid-humVEGF26-104 (designed binder)
chain: CHPIETLVDIFQEYPDEIEYIFKPSAVPLMRCGGACNDEGLECVPTEESNITMQIMRIKPHQGQHIGEMSFLQHNKCEC
modifications: N-terminal acetyl; C-terminal amide; oxidatively folded cystine knot (three disulfide bonds C1-C4, C2-C5, C3-C6)
B1 gave a fold difference in affinity as compared to humVEGF1-165 of under 5 fold.
